The results in this text go back to patent publication KR20210043475A (dated 2021).

Experiment [1] has as its target T1, PD-L1-his (human, UniProt Q9NZQ7 19-238, limits assumed).
T1 construct: also called 인간 PD-L1; not shown: his tag
The experiment in a line: SPR (Biacore 8K), PD-L1-his immobilised on CM5 chip, binder as analyte. (Surface plasmon resonance follows binding to a sensor surface in real time, without labels.)

In experiment [2] the target is T1, PD-L1-his. The experiment is described as follows: SPR (Biacore 8K); ratio of KD against YBL-007 on PD-L1.
In experiment [3] the target is T1, PD-L1-his. The experiment is described as follows: SPR (Biacore 8K), PD-L1-his immobilised on CM5 chip, binder as analyte; monovalent stem Fv.
Experiment [4] addresses T2, PD-L1 on cells (human, UniProt Q9NZQ7 19-290).
T2 construct: whole, on cells; the tumour lines are human lines; The cell line of each result is named under assay or readout; also called PD-L1 + Karpas-299 세포; PD-L1 + HCC827
The experiment is described as follows: flow cytometry, apparent affinity on PD-L1 + Karpas-299 cells. In general terms: In flow cytometry, cells or beads pass a laser one at a time.

The target of a further experiment is T3, CD3 on T cells (UniProt P07766 23-207).
T3 construct: whole, on cells; also called CD3 + Jurkat T 세포; Jurkat T 세포의 CD3
T3 sequence (P07766 23-207): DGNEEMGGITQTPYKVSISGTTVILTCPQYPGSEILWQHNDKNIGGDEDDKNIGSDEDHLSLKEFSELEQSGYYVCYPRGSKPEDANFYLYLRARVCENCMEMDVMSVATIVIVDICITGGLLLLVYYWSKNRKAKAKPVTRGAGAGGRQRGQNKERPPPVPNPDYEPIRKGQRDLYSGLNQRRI
The experiment in a line: flow cytometry, apparent affinity on CD3 + Jurkat T cells.

Experiment [5] concerns the target T2, PD-L1 on cells. The experiment in a line: cell-based or functional assay.

T2 sequence (Q9NZQ7 19-290): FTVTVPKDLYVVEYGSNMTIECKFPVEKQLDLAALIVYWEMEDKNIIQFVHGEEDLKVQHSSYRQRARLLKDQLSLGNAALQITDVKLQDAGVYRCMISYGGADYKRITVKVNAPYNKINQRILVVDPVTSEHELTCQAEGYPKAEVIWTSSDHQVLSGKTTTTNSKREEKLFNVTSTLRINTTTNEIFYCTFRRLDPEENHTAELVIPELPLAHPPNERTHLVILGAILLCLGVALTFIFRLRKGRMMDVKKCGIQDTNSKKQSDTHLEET
T1 sequence (Q9NZQ7 19-238 limits assumed): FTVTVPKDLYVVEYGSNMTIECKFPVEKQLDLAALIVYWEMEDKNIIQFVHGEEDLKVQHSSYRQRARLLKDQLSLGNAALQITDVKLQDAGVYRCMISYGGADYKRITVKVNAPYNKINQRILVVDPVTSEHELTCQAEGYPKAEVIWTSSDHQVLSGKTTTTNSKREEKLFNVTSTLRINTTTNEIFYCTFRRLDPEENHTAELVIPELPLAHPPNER

B1: YBL-007 (항-PD-L1 모 항체) (antibody, V domains shown)
VH: QMQLVQSGAEVKKPGSSVKVSCKASGGTFSSYAISWVRQAPGQGLEWMGRIIPILGIANYAQKFQGRVTITADKSTSTAYMELSSLRSEDTAVYYCAKPRDGYNLVAFDIWGQGTMVTVSS
VL: QLVLTQPPSVSGAPGQRVTISCTGSSSNIGAGYDVHWYQQLPGAAPKLLIYGDINRPSGVPDRFSGSKSGISASLAITGLQAEDEADYYCQSYDSSLSGGVFGGGTKLTVLR
notes: Parent IgG; also called anti-PD-L1 parent antibody (Y-Biologics Inc.)
Regarding B1, the Kd with PD-L1-his [1] was determined as 0.646 nM.

B2: ACE-31 (항-CD3 Fab × 항-PD-L1 Fv) (bispecific antibody)
heavy 1: EVQLQQSGPELVKPGPSMKISCKASGYSFTGYTMNWVKQSHGKNLEWMGLINPYKGVSTYNQKFKDKATLTVDKSSSTAYMELLSLTSEDSAVYYCARSGYYGDSDWYFDVWGQGTTLTVFSASTKGPSVFPLAPSSKSTSGGTAALGCLVKDYFPEPVTVSWNSGALTSGVHTFPAVLQSSGLYSLSSVVTVPSSSLGTQTYICNVNHKPSNTKVDKKVEPKSCDKTHTCPPCPPCPAPELLGGPGGGGSGGGGSQMQLVQSGAEVKKPGSSVKVSCKASGGTFSSYAISWVRQAPGQGLEWMGRIIPILGIANYAQKFQGRVTITADKSTSTAYMELSSLRSEDTAVYYCAKPRDGYNLVAFDIWGQGTMVTVSS
heavy 2: EVQLQQSGPELVKPGPSMKISCKASGYSFTGYTMNWVKQSHGKNLEWMGLINPYKGVSTYNQKFKDKATLTVDKSSSTAYMELLSLTSEDSAVYYCARSGYYGDSDWYFDVWGQGTTLTVFSASTKGPSVFPLAPSSKSTSGGTAALGCLVKDYFPEPVTVSWNSGALTSGVHTFPAVLQSSGLYSLSSVVTVPSSSLGTQTYICNVNHKPSNTKVDKKVEPKSCDKTHTCPPCPPCPAPELLGGPGGGGSQLVLTQPPSVSGAPGQRVTISCTGSSSNIGAGYDVHWYQQLPGAAPKLLIYGDINRPSGVPDRFSGSKSGISASLAITGLQAEDEADYYCQSYDSSLSGGVFGGGTKLTVLR
light: DIQMTQTTSSLSASLGDRVTISCRASQDIRNYLNWYQQKPDGTVKLLIYYTSRLHSGVPSKFSGSGSGTDYSLTISNLEQEDIATYFCQQGNTLPWTFAGGTKLEIKRTVAAPSVFIFPPSDEQLKSGTASVVCLLNNFYPREAKVQWKVDNALQSGNSQESVTEQDSKDSTYSLSSTLTLSKADYEKHKVYACEVTHQGLSSPVTKSFNRGEC
notes: also called ACE-31-VH / ACE-31-VL / ACE-31-LC
With B2, the “fold lower binding affinity than the parent antibody YBL-007” value with PD-L1-his [2] is 40 fold. Moreover, the figures for the Kd with PD-L1-his [3], with PD-L1 on cells [4] and with CD3 on T cells were 27.2 nM, 20.6 nM and 0.856 nM, respectively.

B3: ACE-05 (항-PD-L1 Fab × 항-CD3 Fv) (bispecific antibody)
heavy 1: not shown
heavy 2: not shown
light: QLVLTQPPSVSGAPGQRVTISCTGSSSNIGAGYDVHWYQQLPGAAPKLLIYGDINRPSGVPDRFSGSKSGISASLAITGLQAEDEADYYCQSYDSSLSGGVFGGGTKLTVLRSVAAPSVFIFPPSDEQLKSGTASVVCLLNNFYPREAKVQWKVDNALQSGNSQESVTEQDSKDSTYSLSSTLTLSKADYEKHKVYACEVTHQGLSSPVTKSFNRGEC
notes: also called ALiCE; ACE-05-VH / ACE-05-VL / ACE-05-LC
B3: the Kd with PD-L1-his [1] was determined as 0.678 nM. The Kd with PD-L1 on cells [4] is 0.0314 nM. Moreover, the Kd in the experiment with CD3 on T cells stood at 52.4 nM. In the experiment with PD-L1 on cells [5], the “T 세포 활성화 효율 (EC50); PD-1/PD-L1 blockade bioassay, NFAT-luciferase, PD-L1/aAPC CHO-K1 + PD-1 Jurkat” value is 0.21 nM; the “T 세포 활성화 효율, fold against BiTE-05; PD-1/PD-L1 blockade bioassay” value is 5 fold; the “표적 사멸 활성 (EC50), LDH release, PD-L1 + HCC827 cells with effector cells (PBMC)” value is 0.00197 nM; the “표적 사멸 활성 (EC50), LDH release, PD-L1 + MDA-MB-231 cells with effector cells (CD3 + T cells)” value was 0.00837 nM.
